Data reported in patent publication US20180119166A1 (UNIVERSITY INDUSTRY FOUNDATION YONSEI UNIVERSITY, published 2018).

B4: 6x-histidine-fused LOS4 (LOS4-His) (enzyme)
chain: MADTVEKVPTVVESSSSSTVEASNSAEKTEPTTEKKKWGDVEDDDDEEEAVSELNSLSIKEEEKPDSILEEPEDSNIKAVTSGDTPYTSASRFEDLNLSPELMKGLYVEMKFEKPSKIQAISLPMIMTPPHKHLIAQAHNGSGKTTCFVLGMLSRVDPTLREPQALCICPTRELANQNMEVLQKMGKFTGITAELAVPDSTRGAPAATRGAPVSAHVVIGTPGTLKKWMAFKRLGLNHLKILVFDEADHMLATDGFRDDSLKIMKDIGRVNPNFQVLLFSATFNETVKDFVARTVKDPNQLFVKREDLALDSVKQYKVVCPKEQNKIEVIKDQIMELGDIGQTIIFVKTKASAQKVHKALAEMGYDVTSVHGNLTESDRDKIVKEFKECLTQVLIATDVIARGFDQQRVNLVVNYNLPTKYETGEPDYEVYLHRVGRAGRFGRKGAVFNLLLDDGWDKEVMEKIEKYFEANVKEIKSWNSEEEYKSALKEAGLLDEHHHHHH
notes: Recombinant protein from E. coli Rosetta (DE3); also called LOS-His

Key:
[1] = target: B4; assay: cell-based or functional assay
[2] = target: T1, YFP^N-Gle1 (Arabidopsis, UniProt Q0WPZ7 1-611); assay: BiFC in N. benthamiana leaves (agroinfiltration), confocal microscopy
T1 construct: BiFC construct expressed in N. benthamiana leaves by agroinfiltration; also called YFP^N-fusion protein of Arabidopsis Gle1; not shown: N-terminal fragment of YFP (YFP^N) for BiFC
T1 sequence: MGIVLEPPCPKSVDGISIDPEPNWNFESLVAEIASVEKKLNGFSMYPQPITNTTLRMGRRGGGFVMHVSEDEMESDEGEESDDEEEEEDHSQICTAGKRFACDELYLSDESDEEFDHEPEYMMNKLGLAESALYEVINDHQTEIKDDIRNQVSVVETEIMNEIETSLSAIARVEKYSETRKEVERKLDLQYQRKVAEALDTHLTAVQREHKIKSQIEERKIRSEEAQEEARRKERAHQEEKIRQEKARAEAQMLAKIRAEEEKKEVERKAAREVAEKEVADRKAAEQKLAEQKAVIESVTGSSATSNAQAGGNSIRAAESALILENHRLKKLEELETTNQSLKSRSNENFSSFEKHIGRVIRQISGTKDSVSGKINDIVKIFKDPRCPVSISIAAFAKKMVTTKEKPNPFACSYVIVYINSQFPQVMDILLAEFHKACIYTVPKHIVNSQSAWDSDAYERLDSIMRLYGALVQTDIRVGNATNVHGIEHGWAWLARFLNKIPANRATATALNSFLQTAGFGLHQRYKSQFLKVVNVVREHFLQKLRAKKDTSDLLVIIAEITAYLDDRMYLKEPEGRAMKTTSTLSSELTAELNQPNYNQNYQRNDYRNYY

[3] = target: T2, LOS4 (BiFC fusion protein, FIG. 8B) (Arabidopsis, UniProt Q93ZG7 1-496); assay: BiFC (FIG. 8), told again in the discussion
T2 construct: not shown: YFP fragment for BiFC
T2 sequence (looked up): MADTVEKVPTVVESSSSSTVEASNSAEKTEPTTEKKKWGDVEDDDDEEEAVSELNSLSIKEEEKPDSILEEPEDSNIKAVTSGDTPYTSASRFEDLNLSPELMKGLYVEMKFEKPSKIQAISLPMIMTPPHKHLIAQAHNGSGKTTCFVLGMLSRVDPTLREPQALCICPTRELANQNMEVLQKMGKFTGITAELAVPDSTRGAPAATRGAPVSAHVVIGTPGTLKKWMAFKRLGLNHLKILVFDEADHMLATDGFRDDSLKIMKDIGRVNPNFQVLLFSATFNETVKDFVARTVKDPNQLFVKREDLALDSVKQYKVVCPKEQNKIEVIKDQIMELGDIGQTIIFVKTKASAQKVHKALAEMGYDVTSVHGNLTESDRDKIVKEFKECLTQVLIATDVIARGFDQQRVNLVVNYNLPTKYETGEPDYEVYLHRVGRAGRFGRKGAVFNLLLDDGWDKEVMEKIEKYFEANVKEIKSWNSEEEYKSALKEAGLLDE

[4] = target: maltose-binding protein (MBP) (UniProt P0AEX9 27-392 = MBP); assay: in vitro pull-down on nickel resin, Coomassie blue staining
Excerpt: Purified recombinant proteins are stained with Coomassie blue (left). A mixture of the proteins is bound to a nickel resin or amylose resin, and the resin-bound proteins are eluted and then stained with Coomassie blue (right);
After extensive washing of the resins, the bound proteins were eluted with 2×SDS sample buffer, and the eluted proteins were visualized by Coomassie blue staining.

B1: maltose-binding protein (MBP)-fused Gle1 (MBP-Gle1) (other, not shown: large carriers)
chain: MGIVLEPPCPKSVDGISIDPEPNWNFESLVAEIASVEKKLNGFSMYPQPITNTTLRMGRRGGGFVMHVSEDEMESDEGEESDDEEEEEDHSQICTAGKRFACDELYLSDESDEEFDHEPEYMMNKLGLAESALYEVINDHQTEIKDDIRNQVSVVETEIMNEIETSLSAIARVEKYSETRKEVERKLDLQYQRKVAEALDTHLTAVQREHKIKSQIEERKIRSEEAQEEARRKERAHQEEKIRQEKARAEAQMLAKIRAEEEKKEVERKAAREVAEKEVADRKAAEQKLAEQKAVIESVTGSSATSNAQAGGNSIRAAESALILENHRLKKLEELETTNQSLKSRSNENFSSFEKHIGRVIRQISGTKDSVSGKINDIVKIFKDPRCPVSISIAAFAKKMVTTKEKPNPFACSYVIVYINSQFPQVMDILLAEFHKACIYTVPKHIVNSQSAWDSDAYERLDSIMRLYGALVQTDIRVGNATNVHGIEHGWAWLARFLNKIPANRATATALNSFLQTAGFGLHQRYKSQFLKVVNVVREHFLQKLRAKKDTSDLLVIIAEITAYLDDRMYLKEPEGRAMKTTSTLSSELTAELNQPNYNQNYQRNDYRNYY
LOS4 ATPase activity with RNA and MBP-Gle1 (2 µM), LOS4-His 1 µM [1]: ~3 fold
LOS4 ATPase activity with RNA, MBP-Gle1 (2 µM) and InsP6 (10 µM) [1]: > 4 fold

B2: LOS4-YFP^C (other, Arabidopsis, UniProt Q93ZG7 1-496, looked up)
chain: MADTVEKVPTVVESSSSSTVEASNSAEKTEPTTEKKKWGDVEDDDDEEEAVSELNSLSIKEEEKPDSILEEPEDSNIKAVTSGDTPYTSASRFEDLNLSPELMKGLYVEMKFEKPSKIQAISLPMIMTPPHKHLIAQAHNGSGKTTCFVLGMLSRVDPTLREPQALCICPTRELANQNMEVLQKMGKFTGITAELAVPDSTRGAPAATRGAPVSAHVVIGTPGTLKKWMAFKRLGLNHLKILVFDEADHMLATDGFRDDSLKIMKDIGRVNPNFQVLLFSATFNETVKDFVARTVKDPNQLFVKREDLALDSVKQYKVVCPKEQNKIEVIKDQIMELGDIGQTIIFVKTKASAQKVHKALAEMGYDVTSVHGNLTESDRDKIVKEFKECLTQVLIATDVIARGFDQQRVNLVVNYNLPTKYETGEPDYEVYLHRVGRAGRFGRKGAVFNLLLDDGWDKEVMEKIEKYFEANVKEIKSWNSEEEYKSALKEAGLLDE
notes: BiFC construct expressed in N. benthamiana leaves by agroinfiltration; also called YFP^C-fusion protein of LOS4; not shown: C-terminal fragment of YFP (YFP^C) for BiFC
binding result [2]: binds

B3: IPK1 (BiFC fusion protein, FIG. 8B) (enzyme, Arabidopsis, UniProt Q93YN9 1-451, looked up)
chain: MEMILEEKDASDWIYRGEGGANLVLAYAGSSPLFVGKVIRIQKARRNDKAIKNANGVVSVLTSDEQHLWRENNELISSPNKEVLEQRYVKNVIIPLLGPKHVDAGVRVSVSKEFLECVDKKVTKQRPLWRVNAANVDTSHDSALILNDHSLFSQGISSGGDCISVEIKPKCGFLPTSRFIGKENMLKTSVSRFKMHQLLKLEYNEISEESEYDPLDLFSGSKESVLEAIKALYSTPQNNFRVFLNGSLILGGSGESTGRTSPEIGYAFEDALKGFIQSEDGHRTECFLQLVSDAVYGSGVLDRLLEIQKLDKLDIEGAIHSYYDLINQPCPICKEGKPLEAELSLHALPLDESLKIVKEYLIAATAKDCSIMISFQSRNAWDSEPSGDYVSLKPTNQTFDYKVHFIDLSLKPLKRMESYYKLDKKIISFYNRKQKAENTAEQIGNSKPSHS
notes: Expressed in N. benthamiana leaves by agroinfiltration; also called inositol 1,3,4,5,6-pentakisphosphate 2-kinase; not shown: YFP fragment for BiFC
binding result [3]: binds

B4
binding result [4]: no binding
